Results as given in patent US12365732 (23ANDME, dated 2025).
Where a chain is given by its changes, count along the chain named. Numbers in names are those of the source. Like-named read-outs stand apart in the source and are kept apart here.

B1: 12F8 (clone 12F8.12B5), purified hybridoma antibody (antibody, V domains shown)
VH: QVQLQQPGAELVTPGASVKLSCKASGFTFTNNWMHWVKQRPGQGLEWIGMIHPNSGITNINEKFKNKATVTVDKSSSTVYIQLSSLTSEDSAVYYCRSDGTYEGYFDYWGQGTPLTVSS
VL: DIVMTQSQKFMSTSVGDRVSVTCKASQNVGTAIVWYQKKPGQSPKTLIYSASTRYTGVPDRFTGSGSGTDFTLTISNVQSEDLAEYFCQQYSSSPLTFGSGTKLEIK
notes: murine hybridoma IgG
B2: mAb1.v7.59 Fab (Fab, V domains shown)
VH: EVQLVQSGAEVKKPGASVKVSCKASGFTFTNNWNHWVRQAPGQGLEWIGMIHPNSGITAINEKFKNRVTMTTDTSTSTAYMELRSLRSEDTAVYYCRLDGTYEGYFDYWGQGTLVTVSS
VL: DIQLTQSPSSLSASVGDRVTITCKASQNVGTAIVWYQQKPGKAPKVLIYSASTRYTGVPSRFSGSGSGTDFTLTISSLQPEDFATYYCQQYSSSPLTFGQGTKVEIK
notes: also called M34N//N58A/S94L
B3: mAb1.v7.NGS4 Fab (Fab, V domains shown)
VH: B2 VH with N34M, A59N, E62H, L98S
VL: B2 VL
notes: also called E61H
B4: mAb1.v7.NGS2 Fab (Fab, V domains shown)
VH: B2 VH with N34M, M50F, A59N, L98S
VL: B2 VL
notes: also called M50F
B5: mAb1.v7.NGS5 Fab (Fab, V domains shown)
VH: B2 VH with N34M, A59N, E62R, L98S
VL: B2 VL
notes: also called E61R
B6: mAb1.v7.NGS3 Fab (Fab, V domains shown)
VH: B2 VH with N34M, P53A, A59N, L98S
VL: B2 VL
notes: also called P52aA
B7: mAb1.v7.NGS6 Fab (Fab, V domains shown)
VH: B2 VH with N34M, A59N, L98S, T101I
VL: B2 VL
notes: Fab with 8xHis tag; also called T97I
B8: mAb1.v7.NGS1 Fab (Fab, V domains shown)
VH: B2 VH with W33F, N34M, A59N, L98S
VL: B2 VL
notes: also called W33F
B9: mAb1.v7.NGS7 Fab (Fab, V domains shown)
VH: B2 VH with N34M, A59N, L98S, T101V
VL: B2 VL
notes: also called T97V
B10: 10H5, purified hybridoma antibody (antibody, V domains shown)
VH: QVQLQQSGADLARPGASIKLSCKASGYTFTGYGVTWVKQSTGQGLDWIGEIYPGTVITYYNAKFKGKATLTADKSSSTAYMELRSLTSEDSAVYFCARGLGRAMDYWGQGTSVTVSS
VL: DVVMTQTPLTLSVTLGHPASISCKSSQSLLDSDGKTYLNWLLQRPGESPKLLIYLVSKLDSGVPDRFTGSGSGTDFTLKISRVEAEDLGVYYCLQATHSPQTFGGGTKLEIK
notes: murine hybridoma IgG

Legend:
hu-CD96D1 D3-hFc = hu-CD96D1 D3-hFc (human); assay: ELISA, coated CD96D1D3-hFc
Experimental: (§1) CD96 binding of purified hybridoma antibodies: The hu-CD96 and cy-CD96 antigen binding ELISA was performed on the purified hybridoma antibodies. Briefly, 96-well MAXISORP® flat bottom plates (Thermo Fisher Scientific, Waltham, MA; Cat #439454) were coated overnight at 4° C. with 0.5 µg/mL of hu-CD96D1 D3-hFc and cynomolgus monkey CD96D1 D3-hFc in PBS. After removing the coating solution, unspecific binding was blocked by PBS containing 1% bovine serum albumin (blocking buffer) and incubation at room temperature for one hour. Plates were then washed three times with PBS and 0.05% TWEEN®-20 (wash buffer). Serial dilution of purified antibodies in PBS containing 0.5% BSA and 0.05% Tween 20 (ELISA buffer) was added to individual wells followed by incubation at room temperature for one hour with agitation. Plates were washed three times with wash buffer, then 100 µL/well of anti-mouse IgG-HRP (Thermo Fisher Scientific, Waltham, MA; Cat #626520) in ELISA buffer was added. […] Enzymatic color development was stopped with 50 µL/well of TMB stop solution (VWR/Avantor, Radnor, PA, USA; Cat #95059-200). Plates were analyzed with a SpectraMax i3X plate reader (Molecular Devices LLC, San Jose, CA, USA) at 450 nm.

[1] = biological target: T1, cynomolgus monkey CD96D1 D3-hFc (cynomolgus monkey); assay: ELISA, coated CD96D1D3-hFc
T1 construct: also called cy-CD96D1 D3
Experimental: as §1

[2] = biological target: T2, recombinant hu-CD96 (M1-M503-polyHis) (human, UniProt P40200 22-519); assay: ELISA, blocks hu-CD96-his binding to coated CD155-hFc
T2 construct: also called hu-CD96-his
T2 sequence: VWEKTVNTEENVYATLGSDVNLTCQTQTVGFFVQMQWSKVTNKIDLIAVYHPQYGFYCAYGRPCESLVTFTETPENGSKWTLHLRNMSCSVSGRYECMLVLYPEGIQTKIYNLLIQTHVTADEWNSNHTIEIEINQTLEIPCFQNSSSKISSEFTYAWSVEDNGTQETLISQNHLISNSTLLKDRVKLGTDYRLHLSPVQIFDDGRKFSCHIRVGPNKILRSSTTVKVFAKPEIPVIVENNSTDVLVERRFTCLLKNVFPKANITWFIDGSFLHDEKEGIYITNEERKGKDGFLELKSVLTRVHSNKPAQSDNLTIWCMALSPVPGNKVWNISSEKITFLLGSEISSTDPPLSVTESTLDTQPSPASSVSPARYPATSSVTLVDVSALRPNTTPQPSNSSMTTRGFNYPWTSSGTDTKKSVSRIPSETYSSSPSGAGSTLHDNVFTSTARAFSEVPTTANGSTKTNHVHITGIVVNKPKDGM
Experimental: as §1
CD155 receptor blocking of purified hybridoma antibodies: Human CD155 blocking ELISA was performed on purified hybridoma antibodies following the same protocol as described for CD96 (above), except that serial dilution of purified antibodies 50 µL/well (starting at 1 µM, 1:5 dilution) in assay buffer was added into the reaction.

[3] = biological target: T3, hu-CD96 (soluble, isoform 2 extracellular domain) (human, UniProt P40200 22-516, biotinylated in Octet and blocking ELISA); assay: BLI (Octet), biotin-CD96 on SA, Fab analyte
T3 construct: the assays name only hu-CD96; also called hCD96; biotinylated hu-CD96
T3 sequence: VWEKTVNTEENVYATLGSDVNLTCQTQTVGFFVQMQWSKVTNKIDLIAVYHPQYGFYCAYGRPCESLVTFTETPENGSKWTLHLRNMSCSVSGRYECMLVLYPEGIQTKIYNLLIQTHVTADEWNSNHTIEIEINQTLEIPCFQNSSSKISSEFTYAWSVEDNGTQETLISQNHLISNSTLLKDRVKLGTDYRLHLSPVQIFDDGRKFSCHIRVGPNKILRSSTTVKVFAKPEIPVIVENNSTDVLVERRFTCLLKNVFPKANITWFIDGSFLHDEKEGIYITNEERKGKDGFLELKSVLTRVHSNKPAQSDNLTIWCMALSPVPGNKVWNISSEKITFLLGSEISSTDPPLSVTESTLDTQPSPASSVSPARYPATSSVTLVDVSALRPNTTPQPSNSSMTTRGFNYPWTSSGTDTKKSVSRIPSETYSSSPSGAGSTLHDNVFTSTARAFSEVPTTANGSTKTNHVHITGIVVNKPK
Experimental: (§2) The binding affinity of the generated Fab variants of mAb1.v7 for hu-CD96 and cy-CD96 was determined by OCTET (Pall ForteBio) Bio-Layer Interferometry (BLI) binding analysis. The biotinylated hu-CD96 or biotinylated cy-CD96 was diluted to a final concentration 10 µg/mL in experimental buffer (PBS buffer with 0.01% Tween-20) and immobilized on the Streptavidin Capture (SA) biosensors (Pall ForteBio). Three-fold serial dilutions of the mAb1.v7 Fab variants starting at 1 µM as analytes were diluted in the experimental buffer (PBS buffer with 0.01% Tween-20). The biosensors were equilibrated in experimental buffer at 30° C. for ten minutes prior to starting the experiment. The kinetics experiment was performed with the following steps, where the step name, solution and time are listed: Baseline (buffer—60 seconds), Loading (biotinylated antigen—200 seconds), Baseline 2 (buffer—minimum 120 seconds), Association (analyte—200-300 seconds) and Dissociation (buffer—1000 seconds). The resulting BLI signal from analyte association and dissociation from the […] was analyzed using the Octet Data Analysis software (Pall ForteBio). First a reference subtraction was performed on all recorded traces using the reference well (biosensor that underwent same steps as experimental wells but no analyte for the Association step) and then all the traces were aligned to the beginning of the Association step. The entirety of the Association and Dissociation steps were used in a Global fit (minimum of four analyte concentration traces) in a 1:1 binding model to calculate the K_D values for the 16 selected individual mAb1.v7 Fab variants as summarized in Table 9 (below).

[4] = biological target: T4, cy-CD96 (soluble, extracellular domain) (cynomolgus monkey, UniProt P40200 22-516 (human entry), biotinylated in Octet and blocking ELISA); assay: BLI (Octet), biotin-CD96 on SA, Fab analyte
T4 construct: the assays name only cy-CD96; also called biotinylated cy-CD96
T4 chain: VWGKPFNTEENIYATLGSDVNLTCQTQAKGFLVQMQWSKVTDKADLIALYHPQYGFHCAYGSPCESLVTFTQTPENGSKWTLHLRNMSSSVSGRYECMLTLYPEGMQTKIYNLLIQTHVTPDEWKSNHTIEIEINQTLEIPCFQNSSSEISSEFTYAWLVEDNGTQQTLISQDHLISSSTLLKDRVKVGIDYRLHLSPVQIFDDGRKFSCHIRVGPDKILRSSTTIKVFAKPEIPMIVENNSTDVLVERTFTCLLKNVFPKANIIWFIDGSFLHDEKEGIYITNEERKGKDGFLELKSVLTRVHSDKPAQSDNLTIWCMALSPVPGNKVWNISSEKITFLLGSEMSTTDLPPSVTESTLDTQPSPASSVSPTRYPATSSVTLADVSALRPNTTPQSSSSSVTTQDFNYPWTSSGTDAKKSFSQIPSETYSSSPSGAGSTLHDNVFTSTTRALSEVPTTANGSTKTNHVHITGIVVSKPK
Experimental: as §2

[5] = biological target: T3, hu-CD96 (soluble, isoform 2 …); assay: phage competition ELISA, soluble CD96 vs coated hu-CD96
Experimental: (§3) 192 colonies from most stringent selections (biotinylated 0.1 nM of hu-CD96 or cy-CD96 with 1000× non-biotinylated human or cy-CD96) were grown in 400 µL 2YT with 4 µL helper phage M13KO7 overnight at 37° C. with shaking. After spinning down the pellet, the phage supernatant was diluted 1:1 with 2 nM hu-CD96, 20 nM cy-CD96 and ELISA buffer (0.5% BSA and 0.05% TWEEN®20 in PBS) in total […] and incubated for two hours at room temperature with agitation. The […] of mixture was transferred to hu-CD96 coated plate for 15 min to capture unbound phage. The plate was washed with wash buffer (0.05% TWEEN®20 in PBS), and HRP-conjugated anti-M13 antibody (Sino biological, Cat #11973-MM05-H-50) was added in ELISA buffer for 30 min. […] Enzymatic color development was stopped using TMB stop solution (VWR, Cat #95059-200). Plates were analyzed with a SpectraMax i3X plate reader (Molecular Devices). The % inhibition was calculated by the $OD450$ of wells with hu-CD96/cy-CD96 competitor divided by $OD450$ of wells with buffer alone. The lower % inhibition indicated higher phage $IC50$ against hu-CD96 or cy-CD96.
(§4) Selected top inhibition % phage variants from single spot competition were purified from culture supernatants. The optimal phage concentration was incubated with serially-diluted hu-CD96 or cy-CD96 in ELISA buffer in NUNC F plate for two hours. The […] of the mixture was transferred to hu-CD96 coated wells for 15 min to capture unbound phage. The plate was washed with wash buffer (0.05% TWEEN®20 in PBS), and HRP-conjugated anti-M13 antibody (Sino biological, Cat #11973-MM05-H-50) was added in ELISA buffer for 30 min. The plates were washed and developed as described above. The absorbance at 450 nm was plotted as a function of antigen concentration in solution to determine phage $IC50$.

[6] = biological target: T4, cy-CD96 (soluble, extracellular domain); assay: as above
Experimental: as §3, §4

[7] = biological target: T3, hu-CD96 (soluble, isoform 2 …); assay: BLI (Octet), biotin-CD96 on SA, Fab analyte; remark: listed apart in the source
[8] = biological target: T4, cy-CD96 (soluble, extracellular domain); assay: BLI (Octet), biotin-CD96 on SA, Fab analyte

T1 sequence (chain, as listed by the source limits assumed): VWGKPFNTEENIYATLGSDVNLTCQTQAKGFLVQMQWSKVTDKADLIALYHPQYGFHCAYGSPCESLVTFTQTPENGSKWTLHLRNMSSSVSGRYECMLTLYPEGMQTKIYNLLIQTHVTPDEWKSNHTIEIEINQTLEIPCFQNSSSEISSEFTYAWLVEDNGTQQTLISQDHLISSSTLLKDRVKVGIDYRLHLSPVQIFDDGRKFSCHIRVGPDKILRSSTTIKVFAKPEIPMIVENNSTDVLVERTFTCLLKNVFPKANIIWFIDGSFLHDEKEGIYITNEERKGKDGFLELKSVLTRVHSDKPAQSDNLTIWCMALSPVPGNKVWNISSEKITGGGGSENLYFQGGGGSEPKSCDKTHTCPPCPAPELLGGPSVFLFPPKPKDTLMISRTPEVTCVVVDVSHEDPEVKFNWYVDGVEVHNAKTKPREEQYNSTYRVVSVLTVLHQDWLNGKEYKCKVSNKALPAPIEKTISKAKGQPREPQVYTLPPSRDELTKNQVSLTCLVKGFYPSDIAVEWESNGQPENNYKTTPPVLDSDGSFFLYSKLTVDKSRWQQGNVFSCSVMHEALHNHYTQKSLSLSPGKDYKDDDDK

Row | Binder | Kd [7] [nM] | Kd [8] [nM] | other results
1 | B1 |  |  | EC50 (hu-CD96D1 D3-hFc): 0.25 nM; EC50 [1]: ~10 nM; IC50 [2]: 0.95 nM
2 | B2 |  |  | Kd [3]: ~0.1 nM; Kd [4]: 271 nM; IC50 [5]: 0.1 nM; IC50 [6]: 1.6 nM
3 | B3 | 31.5 | 739 | 
4 | B4 | 63 | ~100 | 
5 | B5 | 43.6 | 85 | 
6 | B6 | 0.1 | ~1000 | 
7 | B7 | 5.32 | 289 | 
8 | B8 | 49 | 271 | 
9 | B9 | 5.61 | 383 | 
10 | B10 |  |  | EC50 (hu-CD96D1 D3-hFc): 0.05 nM; IC50 [2]: 0.958 nM
